The values that follow come from US20190015483A1 (CSL BEHRING RECOMBINANT FACILITY, published 2019).

Numbering of substitutions follows the chain as printed. Names and notes keep the numbering of the source.

For the experiment, the target named is T1, recombinant Factor VIII (CSL627, rVIII-SingleChain) (Homo sapiens (Human), UniProt P00451 20-2351).
T1 construct: also called FVIII
T1 sequence: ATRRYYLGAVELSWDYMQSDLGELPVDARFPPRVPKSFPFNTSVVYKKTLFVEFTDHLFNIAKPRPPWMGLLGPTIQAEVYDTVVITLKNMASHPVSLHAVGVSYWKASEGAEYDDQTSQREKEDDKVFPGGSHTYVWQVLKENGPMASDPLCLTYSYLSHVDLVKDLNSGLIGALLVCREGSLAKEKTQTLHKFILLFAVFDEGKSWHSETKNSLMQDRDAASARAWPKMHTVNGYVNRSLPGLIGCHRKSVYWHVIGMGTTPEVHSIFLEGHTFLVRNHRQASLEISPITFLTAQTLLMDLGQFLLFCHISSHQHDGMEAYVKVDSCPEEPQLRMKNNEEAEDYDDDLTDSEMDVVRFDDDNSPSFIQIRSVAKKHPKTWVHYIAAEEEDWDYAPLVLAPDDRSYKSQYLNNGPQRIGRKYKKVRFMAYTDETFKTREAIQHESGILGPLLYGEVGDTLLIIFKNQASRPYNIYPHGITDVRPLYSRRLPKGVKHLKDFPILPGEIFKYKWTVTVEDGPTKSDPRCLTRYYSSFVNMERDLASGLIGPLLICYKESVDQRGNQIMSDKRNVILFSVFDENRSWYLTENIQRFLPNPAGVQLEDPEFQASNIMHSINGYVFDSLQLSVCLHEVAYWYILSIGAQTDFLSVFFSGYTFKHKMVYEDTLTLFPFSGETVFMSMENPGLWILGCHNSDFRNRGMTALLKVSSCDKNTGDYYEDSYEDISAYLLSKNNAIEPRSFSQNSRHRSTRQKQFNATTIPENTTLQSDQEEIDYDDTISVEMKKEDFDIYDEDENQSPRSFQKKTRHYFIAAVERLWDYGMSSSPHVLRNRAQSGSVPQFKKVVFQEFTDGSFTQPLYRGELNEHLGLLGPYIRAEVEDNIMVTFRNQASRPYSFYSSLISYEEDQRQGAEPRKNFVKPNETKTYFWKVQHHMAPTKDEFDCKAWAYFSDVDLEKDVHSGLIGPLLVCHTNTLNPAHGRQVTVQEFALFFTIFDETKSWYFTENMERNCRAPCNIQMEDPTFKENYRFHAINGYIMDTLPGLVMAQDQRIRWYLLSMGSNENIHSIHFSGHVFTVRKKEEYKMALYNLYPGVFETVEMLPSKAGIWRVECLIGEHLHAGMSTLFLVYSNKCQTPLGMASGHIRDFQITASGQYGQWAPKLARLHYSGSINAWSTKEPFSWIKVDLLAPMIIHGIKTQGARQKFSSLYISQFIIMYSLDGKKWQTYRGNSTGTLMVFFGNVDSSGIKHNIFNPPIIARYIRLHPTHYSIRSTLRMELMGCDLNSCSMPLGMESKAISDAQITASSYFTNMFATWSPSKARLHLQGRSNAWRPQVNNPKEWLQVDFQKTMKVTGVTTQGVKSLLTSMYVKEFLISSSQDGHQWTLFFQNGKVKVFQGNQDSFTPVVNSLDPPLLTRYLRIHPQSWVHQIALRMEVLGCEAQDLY
The experiment in a line: SPR, anti-His capture. The protocol: Binding kinetics were investigated by surface plasmon resonance using a Biacore 4000 biosensor at 37° C. Each mutant was captured from cell culture medium to a density of 40-150 RU on a CM-5 sensor chip pre-immobilised with anti-His antibody (14,000 RU). In an initial screening study, FVIII was injected over the captured mutants for 5 minutes at 1 nM and dissociation monitored for 5 minutes.
All sensorgrams were double referenced by subtraction of signals from a reference spot (containing only immobilised anti His antibody) and from a blank injection. Binding kinetics were determined by fitting the double referenced sensorgrams to a 1:1 kinetic model.
(Surface plasmon resonance follows binding to a sensor surface in real time, without labels.)

B1: Hu-vWF[764-1270]-8His S764P-K773S (other)
chain: PLSCRPPMVSLVCPADNLRAEGLECTKTCQNYDLECMSMGCVSGCLCPPGMVRHENRCVALERCPCFHQGKEYAPGETVKIGCNTCVCRDRKWNCTDHVCDATCSTIGMAHYLTFDGLKYLFPGECQYVLVQDYCGSNPGTFRILVGNKGCSHPSVKCKKRVTILVEGGEIELFDGEVNVKRPMKDETHFEVVESGRYIILLLGKALSVVWDRHLSISVVLKQTYQEKVCGLCGNFDGIQNNDLTSSNLQVEEDPVDFGNSWKVSSQCADTRKVPLDSSPATCHNNIMKQTMVDSSCRILTSDVFQDCNKLVDPEPYLDVCIYDTCSCESIGDCACFCDTIAAYAHVCAQHGKVVTWRTATLCPQSCEERNLRENGYECEWRYNSCAPACQVTCQHPEPLACPVQCVEGCHAHCPPGKILDELLQTCVDPEDCPVCEVAGRRFASGKKVTLNPSDPEHCQICHCDVVNLTCEACQEPGGLVVPPTDAPVSPTTLYVEDISEPPLHDFHHHHHHHH
On to B1, for which the Kd (commonly the constant that tells how readily two partners part at equilibrium) came to 0.0142 nM; the koff (as a rule, a measure of how fast the partners let go of each other) is 0.000306 s⁻¹; the kon (as a rule, a measure of how fast the partners come together) worked out at 2.16e+07 M⁻¹ s⁻¹.

B2: Hu-vWF[764-1270]-8His S764P-S766G (other)
chain: B1 chain with S3G, S10K
As to B2, the Kd was found to be 0.0217 nM, the koff is 0.000388 s⁻¹ and the kon stood at 1.79e+07 M⁻¹ s⁻¹.

B3: Hu-vWF[764-1270]-8His S764P-L765P (other)
chain: B1 chain with L2P, S10K
As for B3, the Kd was found to be 0.0238 nM, the koff was found to be 0.000242 s⁻¹ and the kon was 1.02e+07 M⁻¹ s⁻¹.

B4: Hu-vWF[764-1270]-8His S764P-S766I (other)
chain: B1 chain with S3I, S10K
As for B4, the Kd was 0.00523 nM, the “fold decrease in off-rate against wild type vWF” value is 22 fold, the “fold increase in affinity against wild type vWF” value was 30 fold and the koff is 5.14e-05 s⁻¹. Moreover, the kon is 9.84e+06 M⁻¹ s⁻¹.

B5: Hu-vWF[764-1270]-8His S764P-K773T (other)
chain: B1 chain with S10T
On to B5, for which the Kd worked out at 0.016 nM, the koff was 7.5e-05 s⁻¹ and the kon is 4.68e+06 M⁻¹ s⁻¹.

B6: Hu-vWF[764-1270]-8His S764P-L765Q (other)
chain: B1 chain with L2Q, S10K
Turning to B6, the Kd was determined as 0.88 nM, the koff turned out to be 0.00714 s⁻¹ and the kon worked out at 8.12e+06 M⁻¹ s⁻¹.

B7: Hu-vWF[764-1270]-8His S764P-S766N (other)
chain: B1 chain with S3N, S10K
B7: the Kd stood at 0.0104 nM, the koff is 9.14e-05 s⁻¹ and the kon was 8.82e+06 M⁻¹ s⁻¹.

B8: Hu-vWF[764-1270]-8His S764P-L765M (other)
chain: B1 chain with L2M, S10K
For B8, the Kd worked out at 0.0243 nM, the koff worked out at 0.000237 s⁻¹ and the kon came to 9.76e+06 M⁻¹ s⁻¹.

B9: Hu-vWF[764-1270]-8His S764P-S766L (other)
chain: B1 chain with S3L, S10K
For B9, the Kd turned out to be 0.00606 nM, the koff came out at 8.74e-05 s⁻¹ and the kon is 1.44e+07 M⁻¹ s⁻¹.

B10: Hu-vWF[764-1270]-8His S764P-K773V (other)
chain: B1 chain with S10V
Consider B10, for which the Kd turned out to be 0.0101 nM, the koff was 0.000157 s⁻¹ and the kon was found to be 1.55e+07 M⁻¹ s⁻¹.

B11: Hu-vWF[764-1270]-8His S764P-S766K (other)
chain: B1 chain with S3K, S10K
Take B11: the Kd is 0.014 nM, the koff worked out at 0.000301 s⁻¹ and the kon came out at 2.15e+07 M⁻¹ s⁻¹.

B12: Hu-vWF[764-1270]-8His S764P-L765T (other)
chain: B1 chain with L2T, S10K
Regarding B12, the Kd stood at 0.634 nM, the koff was determined as 0.00882 s⁻¹ and the kon was 1.39e+07 M⁻¹ s⁻¹.

B13: Hu-vWF[764-1270]-8His S764P-S766D (other)
chain: B1 chain with S3D, S10K
Consider B13, for which the dissociation constant Kd was 0.0127 nM, the koff amounted to 0.00012 s⁻¹ and the kon was 9.41e+06 M⁻¹ s⁻¹.

B14: Hu-vWF[764-1270]-8His S764P-S766M (other)
chain: B1 chain with S3M, S10K
Consider B14, for which the equilibrium dissociation constant (Kd) came out at 0.00488 nM, the koff came out at 5.76e-05 s⁻¹ and the kon turned out to be 1.18e+07 M⁻¹ s⁻¹.

B15: Hu-vWF[764-1270]-8His S764P-K773W (other)
chain: B1 chain with S10W
Consider B15, for which the Kd amounted to 0.257 nM, the koff amounted to 0.00321 s⁻¹ and the kon is 1.25e+07 M⁻¹ s⁻¹.

B16: Hu-vWF[764-1270]-8His S764P-S766A (other)
chain: B1 chain with S3A, S10K
With B16, the Kd is 0.0123 nM, the koff was 0.000166 s⁻¹ and the kon was 1.35e+07 M⁻¹ s⁻¹.

B17: Hu-vWF[764-1270]-8His S764P-L765H (other)
chain: B1 chain with L2H, S10K
Turning to B17, the Kd came out at 0.555 nM, the koff came to 0.00642 s⁻¹ and the kon came to 1.16e+07 M⁻¹ s⁻¹.

B18: Hu-vWF[764-1270]-8His S764P-S766F (other)
chain: B1 chain with S3F, S10K
For the molecule B18, the Kd came out at 0.00741 nM, the koff was determined as 0.0001 s⁻¹ and the kon was determined as 1.35e+07 M⁻¹ s⁻¹.

B19: Hu-vWF[764-1270]-8His S764P-K773Y (other)
chain: B1 chain with S10Y
Consider B19, for which the Kd amounted to 0.0835 nM, the koff is 0.00136 s⁻¹ and the on-rate (kon) was determined as 1.63e+07 M⁻¹ s⁻¹.

B20: Hu-vWF[764-1270]-8His S764P-L765Y (other)
chain: B1 chain with L2Y, S10K
For the molecule B20, the Kd was determined as 0.355 nM, the koff is 0.0022 s⁻¹ and the kon was 6.19e+06 M⁻¹ s⁻¹.

B21: Hu-vWF[764-1270]-8His S764P-L765V (other)
chain: B1 chain with L2V, S10K
In the case of B21, the Kd worked out at 0.355 nM, the koff amounted to 0.0022 s⁻¹ and the kon is 6.19e+06 M⁻¹ s⁻¹.

B22: Hu-vWF[764-1270]-8His S764P-S766H (other)
chain: B1 chain with S3H, S10K
With B22, the Kd was 0.00676 nM, the koff amounted to 9.47e-05 s⁻¹ and the kon came out at 1.4e+07 M⁻¹ s⁻¹.

B23: Hu-vWF[764-1270]-8His S764P-L765W (other)
chain: B1 chain with L2W, S10K
Regarding B23, the dissociation constant (Kd) turned out to be 0.645 nM, the koff was 0.00514 s⁻¹ and the kon is 7.97e+06 M⁻¹ s⁻¹.

B24: Hu-vWF[764-1270]-8His S764P-L765F (other)
chain: B1 chain with L2F, S10K
In the case of B24, the Kd is 0.0373 nM, the koff is 0.000632 s⁻¹ and the kon was 1.69e+07 M⁻¹ s⁻¹.

B25: Hu-vWF[764-1270]-8His S764P-L765A (other)
chain: B1 chain with L2A, S10K
With B25, the Kd was 0.906 nM, the off-rate (koff) is 0.0278 s⁻¹ and the kon came out at 3.07e+07 M⁻¹ s⁻¹.

B26: Hu-vWF[764-1270]-8His S764P-L765I (other)
chain: B1 chain with L2I, S10K
For the molecule B26, the Kd came to 0.0118 nM, the koff was 9.52e-05 s⁻¹ and the kon turned out to be 8.08e+06 M⁻¹ s⁻¹.

B27: Hu-vWF[764-1270]-8His S764P-S766E (other)
chain: B1 chain with S3E, S10K
Turning to B27, the Kd was determined as 0.016 nM, the koff is 0.000128 s⁻¹ and the on-rate constant (kon) worked out at 8.04e+06 M⁻¹ s⁻¹.
